DTH responses data for 1 molecule are collected here from patent US6375944B1, “Methods and compositions for enhancing the immunostimulatory effect of interleukin-12” (The Wistar Institute of Anatomy and Biology, priority 1998, dated 2002).

The experiment relates to allogeneic DTH responses. Kind of experiment: Delayed type hypersensitivity (DTH) assessment, footpad swelling after alloimmunization with HKB cells. Format: in vivo, mice. How it is done: A. C57BL/6 (H-2^b) mice were vaccinated with irradiated allogeneic HKB (H-2^a) cells suspended in PBS at 10^7 trypan blue-excluding cells/ml. Cells were irradiated with 6000 rads from a ^137Cs source, and mice were vaccinated with 10^6 cells s.c. (day 0). Mice were given rmIL-12 (Genetics Institute, Andover, Mass.) by intraperitoneal injection (ip) with 500 ng/day on days 0-4 and 7-11 (10 injections). Control mice received phosphate buffered saline (PBS) injections. The vaccinated mice received 1 mg of neutralizing anti-IFNγ (XMG6) and/or anti-TNFα (XT22) monoclonal antibodies (mAbs) on days −1, 3 and 7. Mice were subsequently assayed for delayed type hypersensitivity (DTH) and for mitogen and alloantigen stimulation of splenocytes as described below.
The DTH assessment was performed as follows: For assessment of allogeneic DTH responses, mice were injected with 50 μl PBS containing 10^6 irradiated SCK cells in the right footpad and with 50 μl PBS in the left footpad. Footpad thickness measurements were taken just before injection and 24 hours later using a Starrett pocket gauge (Athol, Mass.). Data are presented as the difference in footpad swelling induced by SCK cells and by PBS.
C57BL/6 mice genetically deficient for IFNγ (IFNγ^−/−) and wild-type C57BL/6 mice were vaccinated with 10^6 irradiated HKB cells and given 500 ng rmIL-12 or phosphate buffered saline (PBS) on days 0-4 and 7-11 or left unvaccinated. They were challenged with 10^6 irradiated SCK cells in the right foot, with PBS control injection in the left foot on day 12. The DTH responses were measured as described above in Part A.
C. To examine the role of TNFα, SV129×C57BL/6 mice deficient for both p55 and p75 TNF receptors (TNFR^−/− mice) and control mice were vaccinated with 10^6 irradiated HKB cells and given 500 ng IL-12 or PBS on days 0-4 and 7-11. DTH assessment was performed on day 12, as described above in Part A.
Footpad injections for DTH assessment were performed on day 12 as described above in the DTH assay. Swelling 24 hours later is presented as the mean (+S.E.) from 3 mice in each treatment group in FIG. 4A.

B1: rmIL-12: recombinant murine Interleukin-12, heterodimeric cytokine, from Genetics Institute (protein, UniProt P43431 23-215; P43432 23-335, looked up)
Interleukin-12 subunit alpha: RVIPVSGPARCLSQSRNLLKTTDDMVKTAREKLKHYSCTAEDIDHEDITRDQTSTLKTCLPLELHKNESCLATRETSSTTRGSCLPPQKTSLMMTLCLGSIYEDLKMYQTEFQAINAALQNHNHQQIILDKGMLVAIDELMQSLNHNGETLRQKPPVGEADPYRVKMKLCILLHAFSTRVVTINRVMGYLSSA
Interleukin-12 subunit beta: MWELEKDVYVVEVDWTPDAPGETVNLTCDTPEEDDITWTSDQRHGVIGSGKTLTITVKEFLDAGQYTCHKGGETLSHSHLLLHKKENGIWSTEILKNFKNKTFLKCEAPNYSGRFTCSWLVQRNMDLKFNIKSSSSSPDSRAVTCGMASLSAEKVTLDQRDYEKYSVSCQEDVTCPTAEETLPIELALEARQQNKYENYSTSFFIRDIIKPDPPKNLQMKPLKNSQVEVSWEYPDSWSTPHSYFSLKFFVRIQRKKEKMKETEEGCNQKGAFLVEKTSTEVQCKGGNVCVQAQDRYYNSSCSKWACVPCRVRS
As to B1, the DTH responses result by setting is: (IFNγR1−/− C57BL/6×SV129 mice and controls vaccinated with HKB cells, data not shown) “suppressed DTH responses in control but not IFNγR1^−/− mice”; (IFNγ−/− C57BL/6 mice vaccinated with HKB cells, rmIL-12 500 ng days 0-4 and 7-11) “had no suppressive effect”; (TNFR−/− (p55 and p75) SV129×C57BL/6 mice vaccinated with HKB cells, 500 ng days 0-4 and 7-11) “depressed DTH responses like wild-type”; (iNOS−/− C57BL/6 mice vaccinated with HKB cells, course of rmIL-12) “at least as great as those of PBS-treated iNOS^−/− and wild-type mice”; (wild-type C57BL/6 mice vaccinated with irradiated HKB cells, rmIL-12 500 ng/day ip days 0-4 and 7-11, challenge day 12) “suppressed DTH responses to background levels”.
